How the values were obtained:
[1] = biological target: eGFP-GR (wild-type mouse glucocorticoid receptor with eGFP fused to its N-terminal end) (mouse) (UniProt P06537); experiment: number and brightness (N&B) analysis; living BHK cells transiently transfected with pEGFP-GR or its mutants; 100 nM (0.1 µM) Dex or 100 nM Cort for at least 1 h; nuclear brightness ε relative to vehicle; ligand washout also tested (Cort withdrawal reduced the dimers, Dex washout did not)
[2] = biological target: eGFP-GR (wild-type mouse glucocorticoid receptor with eGFP fused to its N-terminal end) (mouse) (UniProt P06537); experiment: number and brightness (N&B) analysis; living BHK cells transiently transfected with pEGFP-GR or pEGFP-GR^A465T; 10 µM 21OH-6,19OP; nuclear brightness ε
[3] = biological target: eGFP-GR (wild-type mouse glucocorticoid receptor with eGFP fused to its N-terminal end) (mouse) (UniProt P06537); experiment: number and brightness (N&B) analysis; living GR-null MEF cell lines stably expressing eGFP-GR or its mutants at endogenous levels; 100 nM Dex or 100 nM Cort; nuclear brightness ε
eGFP-GR^A465T (mouse) [4] = biological target: eGFP-GR^A465T (mouse) (UniProt P06537); experiment: number and brightness (N&B) analysis; living 3617 cells (tetracycline to inhibit the stable GFP-GR) transiently transfected with pEGFP-GR or its mutants; 100 nM Dex or 100 nM Cort for at least 30 min; nuclear brightness ε
eGFP-GR^A465T (mouse) [5] = biological target: eGFP-GR^A465T (mouse) (UniProt P06537); experiment: number and brightness (N&B) analysis; living GR-null MEF cell lines stably expressing eGFP-GR or its mutants at endogenous levels; 100 nM Dex or 100 nM Cort; nuclear brightness ε
mCherry-GR (wild type) = mCherry-GR (wild type) (UniProt P06537); experiment: number and brightness (N&B) analysis; living 3617 cells transiently expressing mCherry, mCherryGRwt, GFP and/or GFP-p65; 300 nM Cort and/or 10 ng/ml TNF-α; nuclear brightness ε in the green and red channels

Chain of mCherry-GR (wild type) (P06537 whole entry): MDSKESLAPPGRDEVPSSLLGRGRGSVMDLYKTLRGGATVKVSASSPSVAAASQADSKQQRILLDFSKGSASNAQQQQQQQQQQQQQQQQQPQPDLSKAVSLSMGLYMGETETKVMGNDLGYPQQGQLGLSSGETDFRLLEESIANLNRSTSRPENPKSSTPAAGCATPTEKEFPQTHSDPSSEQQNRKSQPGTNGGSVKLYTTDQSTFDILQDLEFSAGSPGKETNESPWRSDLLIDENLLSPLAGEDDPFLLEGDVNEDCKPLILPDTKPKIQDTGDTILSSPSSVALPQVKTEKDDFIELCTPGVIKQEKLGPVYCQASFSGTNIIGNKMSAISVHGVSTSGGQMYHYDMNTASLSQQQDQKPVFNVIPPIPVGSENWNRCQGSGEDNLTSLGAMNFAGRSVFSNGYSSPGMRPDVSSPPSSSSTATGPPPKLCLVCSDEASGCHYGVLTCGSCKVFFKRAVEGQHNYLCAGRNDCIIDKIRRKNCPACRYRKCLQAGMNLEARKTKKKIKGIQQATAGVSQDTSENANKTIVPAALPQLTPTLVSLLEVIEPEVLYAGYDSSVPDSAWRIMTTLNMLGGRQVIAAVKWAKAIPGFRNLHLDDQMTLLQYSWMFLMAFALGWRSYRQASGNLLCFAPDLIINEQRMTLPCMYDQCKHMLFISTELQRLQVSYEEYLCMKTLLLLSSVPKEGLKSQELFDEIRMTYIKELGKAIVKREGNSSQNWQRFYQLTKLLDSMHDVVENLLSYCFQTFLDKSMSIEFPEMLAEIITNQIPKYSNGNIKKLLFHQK

eGFP-GR (wild-type mouse glucocorticoid receptor with eGFP fused to its N-terminal end) (from UniProt P06537 1-792)
stoichiometry N [1]: 2 | stoichiometry N [2]: 2 | stoichiometry N [3]: 2

eGFP-GR^A465T (from UniProt P06537 1-792) (receptor)
stoichiometry N (eGFP-GR^A465T (mouse) [4]): 2 | stoichiometry N (eGFP-GR^A465T (mouse) [5]): 2

mCherry-GR (wild type) (from UniProt P06537 1-792) (receptor)
stoichiometry N (mCherry-GR (wild type)): 2

Reference: paper PMC3958349
